These results are taken from the Immune Epitope Database (IEDB).

One experiment concerns the target HLA-A*80:01. Briefly: IEDB peptide-MHC binding, purified MHC/direct/fluorescence; filed as Kd, often an IC50 or EC50 that approximates it; ≥ and ≤ were set here for values at or beyond the usual limits of such assays. The note with it: source organism: Camelpox virus M-96.
The target in a further experiment is HLA-A*30:01. Described as above. The settings on record: source organism: Variola virus.
A further experiment addresses HLA-A*26:03. Briefly: IEDB peptide-MHC binding, purified MHC/competitive/fluorescence; filed as Kd, often an IC50 or EC50 that approximates it; ≥ and ≤ were set here for values at or beyond the usual limits of such assays. The settings on record: source organism: Mycobacterium tuberculosis C.
The target of a further experiment is HLA-A*69:01. The description is as above. The note with it: source organism: Mycobacterium tuberculosis C.
For another experiment, the target named is HLA-B*35:01. The description is as above. The note with it: source organism: Mycobacterium tuberculosis C.
For the next experiment, the target named is HLA-B*15:17. Described as above. The settings on record: source organism: Mycobacterium tuberculosis C.
The next experiment addresses HLA-A*01:01. The description is as above. The note with it: source organism: Mycobacterium tuberculosis C.
The target in the next experiment is HLA-A*26:01. The description is as above. The note with it: source organism: Mycobacterium tuberculosis C.
The target in a further experiment is HLA-A*68:02. Described as above. The settings on record: source organism: Mycobacterium tuberculosis C.
For experiment [1], the target named is HLA-A*26:02. The description is as above. The note with it: source organism: Mycobacterium tuberculosis C.
Another experiment addresses HLA-B*57:01. The description is as above. The settings on record: source organism: Mycobacterium tuberculosis C.
For the next experiment, the target named is HLA-B*27:05. The experiment is described as follows: IEDB peptide-MHC binding, purified MHC/direct/fluorescence; filed as Kd, often an IC50 or EC50 that approximates it; ≥ and ≤ were set here for values at or beyond the usual limits of such assays. The note with it: source organism: Mycobacterium tuberculosis.
Experiment [2] addresses HLA-B*07:02. The experiment is described as above. The settings on record: source organism: Mycobacterium tuberculosis.
A further experiment has as its target HLA-A*31:01. The experiment is described as above. The note with it: source organism: Mycobacterium tuberculosis.
The target in a further experiment is HLA-B*40:01. The experiment is described as above. The note with it: source organism: Mycobacterium tuberculosis.
Experiment [3] addresses HLA-A*02:01. The experiment is described as above. The settings on record: source organism: Mycobacterium tuberculosis.
The next experiment addresses HLA-B*58:01. The description is as above. The note with it: source organism: Mycobacterium tuberculosis.
The next experiment concerns the target HLA-B*48:01. Described as above. The settings on record: source organism: Mycobacterium tuberculosis.
For a further experiment, the target named is HLA-A*11:01. The description is as above. The settings on record: source organism: Mycobacterium tuberculosis.
For experiment [4], the target named is HLA-B*46:01. The experiment is described as above. The note with it: source organism: Yellow fever virus.
The target in experiment [5] is HLA-A*26:02. The description is as above. The settings on record: source organism: Yellow fever virus.
The target of experiment [6] is HLA-B*15:01. Described as above. The settings on record: source organism: Yellow fever virus.
Experiment [7] deals with HLA-B*07:02. The experiment is described as follows: IEDB peptide-MHC binding, purified MHC/competitive/fluorescence; filed as Kd, often an IC50 or EC50 that approximates it; ≥ and ≤ were set here for values at or beyond the usual limits of such assays. The note with it: source organism: Influenza A virus (A/swine/Hannover/1/1981(H1N1)).
The target of a further experiment is HLA-C*14:02. The description is as above. The settings on record: source organism: Influenza A virus (A/swine/Hannover/1/1981(H1N1)).
The target of another experiment is HLA-B*45:06. The experiment is described as above. The note with it: source organism: Influenza A virus (A/swine/Hannover/1/1981(H1N1)).
The next experiment addresses HLA-B*27:20. Described as above. The note with it: source organism: Influenza A virus (A/swine/Hannover/1/1981(H1N1)).
For another experiment, the target named is HLA-B*15:42. Described as above. The note with it: source organism: Influenza A virus (A/swine/Hannover/1/1981(H1N1)).
The next experiment concerns the target HLA-B*83:01. The description is as above. The note with it: source organism: Influenza A virus (A/swine/Hannover/1/1981(H1N1)).
Experiment [8] addresses HLA-B*46:01. The description is as above. The note with it: source organism: Mycobacterium tuberculosis C.
For the next experiment, the target named is HLA-A*02:03. The description is as above. The settings on record: source organism: Mycobacterium tuberculosis C.
The next experiment addresses HLA-B*27:03. Described as above. The note with it: source organism: Mycobacterium tuberculosis C.
Another experiment concerns the target HLA-A*29:02. The description is as above. The note with it: source organism: Mycobacterium tuberculosis C.
The target of experiment [9] is HLA-A*02:01. The description is as above. The settings on record: source organism: Mycobacterium tuberculosis C.
Another experiment addresses HLA-B*18:01. The description is as above. The settings on record: source organism: Mycobacterium tuberculosis C.
For the next experiment, the target named is HLA-A*02:12. The experiment is described as above. The note with it: source organism: Mycobacterium tuberculosis C.
The target of a further experiment is HLA-A*02:16. The experiment is described as above. The settings on record: source organism: Mycobacterium tuberculosis C.
Another experiment concerns the target HLA-B*39:01. The description is as above. The settings on record: source organism: Mycobacterium tuberculosis C.
In another experiment the target is HLA-A*24:03. The experiment is described as above. The note with it: source organism: Mycobacterium tuberculosis C.
The next experiment deals with HLA-A*23:01. The experiment is described as above. The settings on record: source organism: Mycobacterium tuberculosis C.
The target in another experiment is HLA-A*02:19. The experiment is described as above. The note with it: source organism: Mycobacterium tuberculosis C.
The next experiment concerns the target HLA-B*51:01. The description is as above. The note with it: source organism: Mycobacterium tuberculosis C.
A further experiment addresses HLA-A*03:01. The experiment is described as above. The note with it: source organism: Mycobacterium tuberculosis C.
Experiment [10] concerns the target HLA-B*15:01. Described as above. The note with it: source organism: Mycobacterium tuberculosis C.
In the next experiment the target is HLA-A*02:11. The description is as above. The settings on record: source organism: Mycobacterium tuberculosis C.

A value given as a limit tells only on which side of the number the result lay.

The Kd is the concentration at which binding is half-saturated. A low value points to higher affinity. Regarding ITYLMNRFK, the values for the Kd with HLA-A*80:01 and with HLA-A*30:01 were at least 20 µM and at most 0.001 µM, respectively.
With LTFLDCLYY, the Kd is at least 20 µM with HLA-A*26:03; at least 20 µM with HLA-A*69:01; 0.0713 µM with HLA-B*35:01; 0.0005 µM in the experiment with HLA-B*15:17; 0.004 µM with HLA-A*01:01; 0.111 µM in the experiment with HLA-A*26:01. The Kd with HLA-A*68:02 is at least 20 µM; with HLA-A*26:02 [1] it was at least 20 µM; with HLA-B*57:01, 0.187 µM; with HLA-B*27:05 it was at least 20 µM; with HLA-B*07:02 [2], at least 20 µM; with HLA-A*31:01, at least 20 µM. In addition, the Kd with HLA-B*40:01 was at least 20 µM; with HLA-A*02:01 [3], at least 20 µM; in the experiment with HLA-B*58:01 it was 0.145 µM; with HLA-B*48:01 it was at least 20 µM; with HLA-A*11:01 it was 0.0733 µM.
As to LVLAVGPAY, the Kd in the experiment with HLA-B*46:01 [4] was at least 20 µM; in the experiment with HLA-A*26:02 [5], 0.544 µM; in the experiment with HLA-B*15:01 [6], 0.0543 µM.
In the case of RRRFVQNAL, the Kd was at least 20 µM in the experiment with HLA-B*07:02 [7]; 0.21 µM with HLA-C*14:02; at least 5 µM in the experiment with HLA-B*45:06; 0.0013 µM in the experiment with HLA-B*27:20; at least 5 µM in the experiment with HLA-B*15:42; at least 5 µM with HLA-B*83:01.
Consider SLVAIHLAC, for which the equilibrium dissociation constant (Kd) in the experiment with HLA-B*46:01 [8], with HLA-A*69:01, with HLA-A*02:03, with HLA-B*27:03, with HLA-A*29:02 and with HLA-A*02:01 [9] was at least 20 µM in each case. The dissociation constant Kd in the experiment with HLA-B*18:01, with HLA-B*15:17, with HLA-A*26:01, in the experiment with HLA-A*68:02, with HLA-A*02:12 and in the experiment with HLA-A*02:16 was at least 20 µM throughout. The Kd with HLA-B*39:01, with HLA-A*24:03, in the experiment with HLA-A*23:01, with HLA-A*02:19, with HLA-B*51:01 and in the experiment with HLA-A*03:01 was at least 20 µM in each case. For the same sequence, the results for the dissociation constant (Kd) in the experiment with HLA-B*57:01, in the experiment with HLA-B*15:01 [10] and in the experiment with HLA-A*02:11 were at least 20 µM, at least 20 µM and 0.443 µM, respectively.
